According to article PMC2488374, “Study of a Synthetic Human Olfactory Receptor 17-4: Expression and Purification from an Inducible Mammalian Cell Line” (PLoS ONE, 2008):

Molecular target: the molecule itself
Assay: SEC; immunoaffinity-purified hOR17-4 at 0.75 mg/ml on HiLoad 16/60 Superdex 200 in PBS + 0.2% w/v fos-choline-14, 1 ml/min; peak fractions analysed by SDS-PAGE and SYPRO-Ruby staining

B1: human olfactory receptor 17-4 with C-terminal GlyGly linker and rho1D4 tag (hOR17-4-GlyGly-rho1D4) (receptor, UniProt P34982 1-312, looked up)
chain: MDGGNQSEGSEFLLLGMSESPEQQRILFWMFLSMYLVTVVGNVLIILAISSDSRLHTPVYFFLANLSFTDLFFVTNTIPKMLVNLQSHNKAISYAGCLTQLYFLVSLVALDNLILAVMAYDRYVAICCPLHYTTAMSPKLCILLLSLCWVLSVLYGLIHTLLMTRVTFCGSRKIHYIFCEMYVLLRMACSNIQINHTVLIATGCFIFLIPFGFVIISYVLIIRAILRIPSVSKKYKAFSTCASHLGAVSLFYGTLCMVYLKPLHTYSVKDSVATVMYAVVTPMMNPFIYSLRNKDMHGALGRLLDKHFKRLT
notes: human olfactory receptor 17-4 (OR1D2), wild type, 312 amino acids; with GlyGly linker and rho1D4 tag the construct has 323 amino acids; Synthetic, human codon-optimised gene in pcDNA4/To; also called OR1D2; hOR17-4-rho
- stoichiometry N: 2
